Results on 40 sequences are retold here after the nanobody polyreactivity screen of Harvey et al. (2022).

A short description of this series: yeast display, Sf9 membrane polyspecificity reagent, FACS + sequencing; frameworks hold sequencing errors. An outline of the steps:
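Sorting gates, low and high (top ~1%), were placed on anti-HA fluorescence to track expression and on streptavidin fluorescence to track reagent binding. A clone's polyreactivity label is taken from the gate it came out of. The reagent was 10% biotinylated, detergent-solubilized Sf9 membrane, applied for 1 hour at 4 °C to galactose-induced yeast display cells.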
For the sequence “QVQLVESGGGLVQAGGSLRLSCAASGSIYYAMGWYRQAPGKEREFVAAINSGGSTYYADSVKGRFTISRDNAKNTVYIQMNSLKPEDTAVYYCAKPTYRFYWGDFDYWGQGTQVTVSA”, the “polyreactivity (PSR sort gate)” value is given as “low polyreactivity”.
As to “QVQLVESGGGLVQAGGSLRLSCAASGSIYYAMGWYRQAPGKESEFVAAINSGGSTYYADSVKGRFTISRDNAKNTVYLQMNSLKPEDTAVYYCAKPTYRFYWGDFDYWGQGTQVTVSS”, the “polyreactivity (PSR sort gate)” value is reported as “low polyreactivity”.
For “QVQLVESGGGLVQAGGSLRLSCAASGSIYYTNAMGWYRQAPGKERELVAAIRWSGGRTYYADSVKGRFTISRDNAKNTVYLQMNSLKPEDTAVYYCNKVPRTPIPYKYGYWGQGTQVTVSS”, the “polyreactivity (PSR sort gate)” value is listed as “high polyreactivity”.
Take “QVQLVESGGGLVQAGGSLRLSCAASGSIYYYVMGWYRQAPGKERELVAAISRSTGRTYYADSVKGRFTISRDNAKNTVYLQMNSLKPEDTAVYYCNKVVPHKPPTMDYWGQGTQVTVSS”: the “polyreactivity (PSR sort gate)” value is reported as “high polyreactivity”.
Turning to “QVQLVESGGGLVQAGGSLRLSCAASGSIYYYYAMGWYRQAPGKERELVAAIRRRGGTTYYADSVKGRFTISRDNAKNTVSLQMISLKPEDTAVYYCAARSKSAYWGQGTQVTVSS”, the “polyreactivity (PSR sort gate)” value is “high polyreactivity”.
“QVQLVESGGGLVQAGGSLRLSCAASGSLFERYAMGWNRQAPGKEREFVATITSGGGRTYYADSVKGRFTISRDNAKNTVYLQMNSLKPEDTAVYYCNAVYRARSYDYWGQGTQVTVSS”: the “polyreactivity (PSR sort gate)” value was “high polyreactivity”.
Turning to “QVQLVESGGGLVQAGGSLRLSCAASGSLFGRYTMGWYRQATGKDREFVAAIDRVGITNYADSVKGRFTISRDNAKNTVYLQMNSLKPEDTAVYYCAADYGAIRPRDFIEVPGHYDYWGQGTQVTVSS”, the “polyreactivity (PSR sort gate)” value is listed as “low polyreactivity”.
For “QVQLVESGGGLVQAGGSLRLSCAASGSLFGYNAIGRYRQARGKERELVAAITGSGGSTYYADSVKGRFTLSRDNAKNTVYFQMNSLKPEDTAVYYCADDLFGGPLGYWDYDYWGQGTQVTVSS”, the “polyreactivity (PSR sort gate)” value was “low polyreactivity”.
With “QVQLVESGGGLVQAGGSLRLSCAASGSLFNLYAMGWYIQAPGKERELVAAISWSGGRTFYADSVKGRFTISRDNAKNTVFLQMNSLKPEDTAVYDCAARSSRTTRQGYDYWGQGTQVNVSS”, the “polyreactivity (PSR sort gate)” value is “high polyreactivity”.
With “QVQLVESGGGLVQAGGSLRLSCAASGSLFRYYAMGWYRQAPGTERELVAAITGRGGSTYYADSVKGRFTISRDNAKNTVYLQMNSLKPEDTAVYYCADYIDANVHRFDYWGQGTQVTVSS”, the “polyreactivity (PSR sort gate)” value is reported as “low polyreactivity”.
Regarding “QVQLVESGGGLVQAGGSLRLSCAASGSLFSTYAMGWYRPAPGKERELVAAIPTSGGRTYYADSVKGRFTISRDNAKNTVYLQMNSLKPEDTAVYDCNAVRGGRYGLDYWGQGTQVTVSS”, the “polyreactivity (PSR sort gate)” value is “high polyreactivity”.
As to “QVQLVESGGGLVQAGGSLRLSCAASGSMFVVYAMGWYRQGPGKERELVAAISWGIGSTYYADSVKGRFTISRDNAKNTVYLQMNSLKPEDTADYYCAADTDIVLYDYWGQGTQVTVSS”, the “polyreactivity (PSR sort gate)” value was “low polyreactivity”.
Then “QVQLVESGGGLVQAGGSLRLSCAASGSMFYYYAMGWYRQAPGKERELVAAISSAGITNYADSVKGRFTISRDNAKNTVYLQMNSLKPEDTAVSYCAAAVFDIYWFLGEAYYFQYDYWGQGTQVTVSS”, with “high polyreactivity”.
Turning to “QVQLVESGGGLVQAGGSLRLSCAASGSNFAYNAMGWYRQAPGKERELVAGITTSGSRTYYADSVKGRFTISRDNAKNTVYLQMNSLKPEDTAVYYCAADPYFYPIYDYWGQGTQVTVSS”, the “polyreactivity (PSR sort gate)” value is given as “low polyreactivity”.
Under “QVQLVESGGGLVQAGGSLRLSCAASGSNFEYYTMGWYRQAPGKEREFVAAITFTGDSTYYADSVKGRFTSSRDNAKNTVYLQMNSLTPEDTAVYYCNDDSDTYDGEYDYWGQGTQVTVSS” stands “low polyreactivity”.
For “QVQLVESGGGLVQAGGSLRLSCAASGSNFGYNALGWYRQAPGKDRELVAAITGSGGSTYYADSVKGRFTISRDNAKNTVYLQMNSLKPEDTAVYYCAHDLFGGPLGYWDYDYWGQGTQVTVSS”, the “polyreactivity (PSR sort gate)” value was “low polyreactivity”.
Under “QVQLVESGGGLVQAGGSLRLSCAASGSNFLYNAMGWYRQAPGKERELVAAITQGGGSTYYADSVKGRFTISLDIAKNTVYLQMISLKPEDTAVYYCNKASFYDAHRLDYWGQGTQVTVSS” stands “high polyreactivity”; under “QVQLVESGGGLVQAGGSLRLSCAASGSNFPGYAMGWYRQAPGKERELVAAISTSGGSTYADSVKGRFTISRDNAKNTVYLQMNSLKPEDTAVYYCAATYTYTSPVYYSLDGPWPYDYWGQGTQVTVSS”, “low polyreactivity”; under “QVQLVESGGGLVQAGGSLRLSCAASGSNFPLNPMGWYRPSPGKERELVAAISSSTGSTSYADSVKGRFTISRDNAKNTVYLQMNSLKPEDTAVYYCAAETPYIVDYWGQGTQVTVSS”, “high polyreactivity”.
For the sequence “QVQLVESGGGLVQAGGSLRLSCAASGSNFQNYAMGLYIQAPGKERELVAAISSSGTGTSYADSVKGRFTISRDNAKNTVYLQMNSLKPEDTAVYYCAADYLDYADSAYYYWGQCTQVTVSS”, the “polyreactivity (PSR sort gate)” value was “low polyreactivity”.
In the case of “QVQLVESGGGLVQAGGSLRLSCAASGSNFQYVYAMGWYRQAPGKERELVAAINGGSGSTYYADSVKGSFTISRDNAKNTVYLQMNSLKPEDTAVYYCNRDYEYPTYPHDYWGQGTQVTVSS”, the “polyreactivity (PSR sort gate)” value is reported as “low polyreactivity”.
For the sequence “QVQLVESGGGLVQAGGSLRLSCAASGSNFRGYTMGWYRQAPGKERELVAAISLSGGSTYYADSVKGRFTISRDNAKNTVYLQMNSLKPEDTAVYYCAASLPWYDEFDYWGQGTQVTVSS”, the “polyreactivity (PSR sort gate)” value is “low polyreactivity”.
As to “QVQLVESGGGLVQAGGSLRLSCAASGSNFRYNAMGWYRQAPGKERALVAAISGRGTSTYYADSVKGRFTISRDNAKNTVYLQMNSLKPEDTAVYYCAAVYFRTFLVEYYYWGQGTQVTVSS”, the “polyreactivity (PSR sort gate)” value is on record as “high polyreactivity”.
As for “QVQLVESGGGLVQAGGSLRLSCAASGSNFRYYAMGWDRQAPGKERELVAAISYSGGTTYYADSVKGRFTISRDNAKNTVYLQMNSLKPEDTAVYYCAVPLIGVDGYAYDYWGQGTQVTVSS”, the “polyreactivity (PSR sort gate)” value is “low polyreactivity”.
Take “QVQLVESGGGLVQAGGSLRLSCAASGSNFSPNAMGWYRQAPGKERELVAAIDTRDGTTYYADSVKGRFTISRDNAKNTVYLQMNSLKPEDTAVYYCAAGGPVRYGIATPTGAKRFGYWGQGTQVTVSS”: the “polyreactivity (PSR sort gate)” value was “low polyreactivity”.
For the sequence “QVQLVESGGGLVQAGGSLRLSCAASGSNFTFYAMGWYRQAPGKERELVAAISKGGDRTYYADSVKGRFTISRDNAKNTVYLQMNSLKPEDTAVYYCARLVRPGRFGDGDYWGQGTQVTVSS”, the “polyreactivity (PSR sort gate)” value is “low polyreactivity”.
For “QVQLVESGGGLVQAGGSLRLSCAASGSNFWRNVMGWYRQAPGKERELVAAISSGGSTYYADSVKGRFTISRDNAKNTVYLQMNSLKPEDTEVYYCAAPRYDYWGQGTQVTVSS”, the “polyreactivity (PSR sort gate)” value was “high polyreactivity”.
On to “QVQLVESGGGLVQAGGSLRLSCAASGSNFWSNAMRWYRQAPGKERELVATIDDDVGSTYYADSVKGRFTISRDNAKNTVYFQMNSLKPEDTAVYYCAADTSGADAYTKVRDGYDYWGQGTQVSVSS”, for which the “polyreactivity (PSR sort gate)” value is recorded as “low polyreactivity”.
Take “QVQLVESGGGLVQAGGSLRLSCAASGSNFYDYAMGWYRQAPGKERELVAAISSGGGTYYADSVKGRFTISRDNAKNTVYLQMNSLKPEDTAVYYCNADTYEWFSDFSEDSYDYWGQGTQVTVSS”: the “polyreactivity (PSR sort gate)” value is “low polyreactivity”.
In the case of “QVQLVESGGGLVQAGGSLRLSCAASGSNFYPYTMGWYRQAPGKERELVAAISGGGRTYYADSVKGRFTISRDNAKNTVFLQMNSLNPEDTAVYYCAARYVYRWLVGKYEYWGQGTQVTLSS”, the “polyreactivity (PSR sort gate)” value is recorded as “high polyreactivity”.
Regarding “QVQLVESGGGLVQAGGSLRLSCAASGSNFYQYAMGWYRPAPRKERELVAAISVRAGITYYADSVTGRFTISRDNAKYTVYLQMNSLKPEDTAVYYCAKDHWTTSYDEGDYWGQGTQVTVSS”, the “polyreactivity (PSR sort gate)” value is “low polyreactivity”.
Turning to “QVQLVESGGGLVQAGGSLRLSCAASGSNFYSYAMGWYRQAPGKESELVAAITKSSGSTYYAASVKGRFTISRDYAKNTVYLQMNSLKPEDTAVYYCAATRYRPVRLYYWGQGTQVTVSS”, the “polyreactivity (PSR sort gate)” value is reported as “high polyreactivity”.
In the case of “QVQLVESGGGLVQAGGSLRLSCAASGSNFYVYAMGCYRQAPGKERELVAAINYDSGSTYYADSVKGRFTISRDTAKNTVYLQMNSLIPEDTAVYYCGTDGVNPFYAYDYWGQGTQVTVSS”, the “polyreactivity (PSR sort gate)” value is “low polyreactivity”.
Then “QVQLVESGGGLVQAGGSLRLSCAASGSNFYVYAMLWYRQAPGKERELVADITTRDGDTYYADSVKGRFTISRDNAKNTVYLQMNSLKPEDTAVYYCAADLNAYPLRAYDYWGQGTQVTVSS”, with “low polyreactivity”; and “QVQLVESGGGLVQAGGSLRLSCAASGSNFYYKAMGWYRQAPGKERELVAAITSGDSTNYADSVKGRFTISRDNAKNTVYLQMNSLKPEDTAVYYCAADYLAALTYYRTYDYWGQGTQVTVSS”, with “low polyreactivity”.
Under “QVQLVESGGGLVQAGGSLRLSCAASGSNIATYAMGWYRQAPWKETELVAAISSTGRTYYADSVKGRFTISRDNAKNTVYLQMTRLKPVDTAVYYCNTVRYRSRYGMDYWGQGTQVTVSS” stands “high polyreactivity”.
Consider “QVQLVESGGGLVQAGGSLRLSCAASGSNIERNAMGWYIQAPGKERELVANITWSGVSTYYADSVKGRFTISRDNAKNTVYLQMNSLKPEDTAVYYCNADYSYRHWYDPGQYGQAMGYWGQGTQVTVSS”, for which the “polyreactivity (PSR sort gate)” value was “low polyreactivity”.
Then “QVQLVESGGGLVQAGGSLRLSCAASGSNIFQYDMGWYRQAPGKERELVAAITISGGSTYYADSVKGRFTISRDNAKNTVYLQLNILKPEDTAVYYCNADYEWYLGGYDYWGQGTQVTVSS”, with “high polyreactivity”; and “QVQLVESGGGLVQAGGSLRLSCAASGSNLPYYAMGWYRQAPVKERELVAAISYSGGSTYYADSVKGRFTISRDNAKNPVFLQMYSLKPEVTAVYDCNAVVRSPAHGFWGQCTQVTVSS”, with “high polyreactivity”; and “QVQLVESGGGLVQAGGSLRLSCAASGSNLVQNAMGWYRQAPGKERELVAAINWSGASTYYADSVKGRFTISRDNAKNTVYLQMNSLKPEDTAVYYCATVTLFFTDYYSWADVYTEYDYWGQGTQVTVSS”, with “low polyreactivity”.
